The values below come from patent US20240166765A1 (ICONIC THERAPEUTICS, published 2024).

The target in test [1] is human Tissue Factor (hTF), endogenously expressed on human TF-positive cells (human, UniProt P13726 33-295). The test is described as follows: cell-based or functional assay.
Test [2] addresses T1, pig TF ECD-His (pig TF-His) protein (pig (Sus scrofa)).
T1 construct: Extracellular domain with a C-terminal TG-His6 tag, used as analyte in Biacore; also called pTF
T1 chain: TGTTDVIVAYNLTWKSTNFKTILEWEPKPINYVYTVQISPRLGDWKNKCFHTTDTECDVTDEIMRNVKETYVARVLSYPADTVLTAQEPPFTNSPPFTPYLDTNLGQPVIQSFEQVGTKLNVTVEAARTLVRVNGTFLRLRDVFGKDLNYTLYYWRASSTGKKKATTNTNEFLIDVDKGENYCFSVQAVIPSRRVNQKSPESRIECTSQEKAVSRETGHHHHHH
The test is described as follows: Biacore, antibody captured by anti-human IgG on CM5 chip, pig TF-His as analyte, 1:1 model. In general terms: SPR reads the build-up and loss of mass on a sensor chip optically.

Test [3] addresses T2, human TF ECD-His6 (human, UniProt P13726 33-251).
T2 construct: made in Expi293 cells; the entry holds the ECD with the C-terminal TG-His6; also called TF-His; hTF
The test is described as follows: BLI (ForteBio Octet). In general terms: Biolayer interferometry detects binding as a change in optical thickness at a sensor tip.

The target in test [4] is T3, cynomolgus TF ECD-His6 (cynomolgus monkey (Macaca fascicularis)).
T3 construct: made in Expi293 cells; also called TF-His; cTF
T3 chain: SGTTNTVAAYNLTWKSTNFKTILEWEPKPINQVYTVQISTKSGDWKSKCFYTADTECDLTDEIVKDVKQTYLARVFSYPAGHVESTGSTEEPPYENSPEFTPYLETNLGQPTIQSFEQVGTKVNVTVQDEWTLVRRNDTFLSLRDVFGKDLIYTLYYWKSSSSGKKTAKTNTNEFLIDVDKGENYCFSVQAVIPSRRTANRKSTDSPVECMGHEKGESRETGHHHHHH
Briefly: BLI (ForteBio Octet).

Test [5] concerns the target T4, mouse TF ECD-His6 (mouse, UniProt P20352 29-251).
T4 construct: made in Expi293 cells; also called TF-His; mTF
Briefly: BLI (ForteBio Octet).

Test [6] addresses T3, cynomolgus TF ECD-His6. Briefly: SPR (Biacore), antibody on chip, TF-His titrated.
Test [7] addresses T4, mouse TF ECD-His6. Briefly: SPR (Biacore), antibody on chip, TF-His titrated.
Test [8] has as its target rTF (rat TF) on HEK293 cells (rat, UniProt P42533 29-252). The test is described as follows: live cell staining of transfected HEK293, flow cytometry. A general note: A flow cytometer gives signals particle by particle.
Another test has as its target T5, hTF_K149N (human, UniProt P13726 33-251).
T5 construct: the entry already holds K149N; on transfected HEK293 cells; not shown: transmembrane and cytoplasmic part of the construct expressed on HEK293 cells
T5 chain: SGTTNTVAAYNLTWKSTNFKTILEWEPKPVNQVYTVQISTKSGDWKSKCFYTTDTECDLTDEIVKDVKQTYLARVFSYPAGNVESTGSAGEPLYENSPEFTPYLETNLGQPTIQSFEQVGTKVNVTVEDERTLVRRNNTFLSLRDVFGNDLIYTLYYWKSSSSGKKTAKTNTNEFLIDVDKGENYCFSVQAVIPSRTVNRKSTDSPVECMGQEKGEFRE
Described as above.

Test [9] concerns the target T6, hTF_N171H_T197K (human, UniProt P13726 33-251).
T6 construct: the entry already holds N171H and T197K; on transfected HEK293 cells
T6 chain: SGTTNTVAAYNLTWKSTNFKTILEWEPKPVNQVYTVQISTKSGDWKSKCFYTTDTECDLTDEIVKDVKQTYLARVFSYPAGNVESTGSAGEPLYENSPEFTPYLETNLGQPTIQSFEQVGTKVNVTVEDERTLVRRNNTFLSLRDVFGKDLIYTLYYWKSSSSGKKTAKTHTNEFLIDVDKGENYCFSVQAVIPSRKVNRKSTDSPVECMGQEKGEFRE
The test is described as above.

In test [10] the target is T2, human TF ECD-His6. The test is described as follows: SPR (Biacore), antibody on chip, TF-His titrated.
The target of test [11] is T7, rTF (rat TF) (rat, UniProt P42533 29-252).
T7 construct: Expressed on the surface of transfected HEK293 cells
The test is described as follows: live cell staining, flow cytometry.

The next test concerns the target T8, h1-107_r (human/rat chimera).
T8 construct: on HEK293 cells
T8 chain: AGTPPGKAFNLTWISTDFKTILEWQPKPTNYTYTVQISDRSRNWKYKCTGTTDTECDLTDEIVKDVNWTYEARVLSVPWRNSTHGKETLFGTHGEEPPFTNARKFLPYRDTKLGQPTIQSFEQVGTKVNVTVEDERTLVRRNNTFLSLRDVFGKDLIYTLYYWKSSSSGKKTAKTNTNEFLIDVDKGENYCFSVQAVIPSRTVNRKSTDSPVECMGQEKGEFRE
The test is described as follows: live cell staining, flow cytometry.

In a further test the target is T9, h1-77_r (human/rat chimera).
T9 construct: Human TF with ECD residues 1-77 replaced by the rat segment; on HEK293 cells
The test is described as follows: live cell staining, flow cytometry.

The target of a further test is T10, h78-107_r.v2 (human/rat chimera).
T10 construct: on HEK293 cells
The test is described as follows: live cell staining, flow cytometry.

The target in a further test is T11, hTF (human, UniProt P13726 33-251).
T11 construct: also called human TF; human Tissue Factor
Briefly: live cell staining, flow cytometry.

Test [12] addresses T7, rTF (rat TF). Briefly: live cell staining, flow cytometry. This is another data set of the same source.
The target in another test is T12, r141-194_h (rat/human chimera, UniProt P42533 29-252).
T12 construct: on HEK293 cells
Briefly: live cell staining, flow cytometry.

Test [13] deals with T13, hTF_N171H_T197K (human, UniProt P13726 33-251).
T13 construct: on HEK293 cells
T13 chain: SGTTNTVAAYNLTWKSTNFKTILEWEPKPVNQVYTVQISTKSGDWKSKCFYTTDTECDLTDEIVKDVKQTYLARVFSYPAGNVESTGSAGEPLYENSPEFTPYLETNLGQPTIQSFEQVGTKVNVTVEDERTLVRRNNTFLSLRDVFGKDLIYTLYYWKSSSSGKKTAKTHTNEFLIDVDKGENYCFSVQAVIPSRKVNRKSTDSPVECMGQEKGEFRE
The test is described as follows: live cell staining, flow cytometry.

Like-named read-outs stand apart in the source and are kept apart here.

What is called Kd is the concentration at which binding is half-saturated.

B1: anti-TF antibody 25G9 (antibody, human IgG1, kappa, V domains shown)
VH: QVQLVQSGAEVKKPGASVKVSCKASGYTFRSYGISWVRQAPGQGLEWMGWVAPYSGNTNYAQKLQGRVTMTTDTSTSTAYMELRSLRSDDTAVYYCARDAGTYSPYGYGMDVWGQGTTVTVSS
VL: DIQMTQSPSTLSASVGDRVTITCQASQSIDSWLAWYQQKPGKAPKLLIYSASYLESGVPSRFSGSGSGTEFTLTISSLQPDDFATYYCQRFQSLPPFTFGGGTKVEIKR
notes: Human IgG1
In the case of B1, in test [1], the “% GM-CSF, 2.56 nM antibody, MDA-MB-231 cells + FVIIa” value amounted to 60%; the “% GM-CSF, 6.4 nM antibody, MDA-MB-231 cells + FVIIa” value amounted to 34%; the “% GM-CSF, 16 nM antibody, MDA-MB-231 cells + FVIIa” value was 26%; the “% GM-CSF, 40 nM antibody, MDA-MB-231 cells + FVIIa” value was 26%. In test [1], the “% GM-CSF, 100 nM antibody, MDA-MB-231 cells + FVIIa” value was determined as 25%. In test [2], this molecule came in with a Kd of 3.31 nM.

B2: 25G1 (antibody, human IgG1, kappa, V domains shown)
VH: QVQLVQSGAEVKKPGASVKVSCKASGYTFRSYGISWVRQAPGQGLEWMGWVAPYSGNTNYAQKLQGRVTMTTDTSTSTAYMELRSLRSDDTAVYYCARDAGTYSPYGYGMDVWGQGTTVTVSS
VL: DIQMTQSPSTLSASVGDRVTITCRASHSIDSWLAWYQQKPGKAPKLLIYKASYLESGVPSRFSGSGSGTEFTLTISSLQPDDFATYYCQLFQSLPPFTFGGGTKVEIKR
notes: human IgG1
For the molecule B2, the dissociation constant (Kd) was 3.97 nM with human TF ECD-His6 [3]; 4.99 nM with cynomolgus TF ECD-His6 [4]; 34.2 nM with mouse TF ECD-His6 [5]; 0.78 nM with cynomolgus TF ECD-His6 [6]; 5.4 nM with mouse TF ECD-His6 [7]. In addition, the figures for the binding result (in test [8]; in the test with hTF_K149N; with hTF_N171H_T197K [9]) were “no binding (tested: 15 µg/ml (100 nM))”, “no binding” and “no binding”, respectively.

B3: 25A (antibody, human IgG1, V domains shown)
VH: QVQLVQSGAEVKKPGASVKVSCKASGYTFDVYGISWVRQAPGQGLEWMGWIAPYNGNTNYAQKLQGRVTMTTDTSTSTAYMELRSLRSDDTAVYYCARDAGTYSPFGYGMDVWGQGTTVTVSS
VL: DIQMTQSPSTLSASVGDRVTITCRASQSISSWLAWYQQKPGKAPKLLIYKASSLESGVPSRFSGSGSGTEFTLTISSLQPDDFATYYCQQFQSLPPFTFGGGTKVEIK
notes: human IgG1
For B3, the Kd with human TF ECD-His6 [3] was 8.45 nM; with cynomolgus TF ECD-His6 [4], 7.65 nM; with mouse TF ECD-His6 [5], 263 nM; in the test with human TF ECD-His6 [10], 6.2 nM; in the test with cynomolgus TF ECD-His6 [6] it was 5.42 nM. The binding result in [8] is listed as “no binding (tested: 15 µg/ml (100 nM))”; with hTF_K149N, “no binding”; in the test with hTF_N171H_T197K [9], “no binding”.

B4: 25G9 (antibody, human IgG1, kappa, V domains shown)
VH: QVQLVQSGAEVKKPGASVKVSCKASGYTFRSYGISWVRQAPGQGLEWMGWVAPYSGNTNYAQKLQGRVTMTTDTSTSTAYMELRSLRSDDTAVYYCARDAGTYSPYGYGMDVWGQGTTVTVSS
VL: DIQMTQSPSTLSASVGDRVTITCQASQSIDSWLAWYQQKPGKAPKLLIYSASYLESGVPSRFSGSGSGTEFTLTISSLQPDDFATYYCQRFQSLPPFTFGGGTKVEIKR
notes: human IgG1
As to B4, the equilibrium dissociation constant (Kd) with human TF ECD-His6 [3] came out at 35.8 nM; with cynomolgus TF ECD-His6 [4], 42.9 nM; with mouse TF ECD-His6 [5], 9.16 nM; with human TF ECD-His6 [10] it was 13.3 nM; with cynomolgus TF ECD-His6 [6] it was 16.4 nM; with mouse TF ECD-His6 [7], 2.9 nM. Also, the values for the binding result (in test [8]; in the test with hTF_K149N; with hTF_N171H_T197K [9]) were “no binding (tested: 15 µg/ml (100 nM))”, “no binding” and “no binding”, respectively.

B5: anti-TF antibody 43D8 (antibody, human IgG1, kappa, V domains shown)
VH: QVQLQQWGAGLLKPSETLSLTCAVYGGSLSGYYWSWIRQPPGKGLEWIGEIGASGSTRYNPSLKSRVTISVDTSKNQFSLKLSSVTAADTAVYYCARDTPYYYEGGYYYYMDVWGKGTTVTVSS
VL: EIVLTQSPGTLSLSPGERATLSCRASQSVSSSFLAWYQQKPGQAPRLLIYGAYSRATGIPDRFSGSGSGTDFTLTISRLEPEDFAVYYCQQAGVVPYTFGGGTKVEIKR
notes: Human IgG1
Regarding B5, in [1], the “% GM-CSF, 2.56 nM antibody, MDA-MB-231 cells + FVIIa” value came out at 57%; the “% GM-CSF, 6.4 nM antibody, MDA-MB-231 cells + FVIIa” value was 24%; the “% GM-CSF, 16 nM antibody, MDA-MB-231 cells + FVIIa” value is 11%; the “% GM-CSF, 40 nM antibody, MDA-MB-231 cells + FVIIa” value is 11%. In addition, the “% GM-CSF, 100 nM antibody, MDA-MB-231 cells + FVIIa” value in [1] is 12%. The molecule further came in with a Kd in [2] of 12.9 nM.

B6: 1F (antibody, human IgG1, V domains shown)
VH: EVQLLESGGGLVQPGGSLRLSCAASGFTFSDYAMGWVRQAPGKGLEWVSTISGSGGLTYYADSVKGRFTISRDNSKNTLYLQMNSLRAEDTAVYYCAKAPYGYYMDVWGKGTTVTVSS
VL: not shown
notes: Human IgG1
B6: the “Percent antibody binding to TF construct relative to hTF” value in the test with rTF (rat TF) [11] stood at 0%; in the test with h1-107_r, 0%; in the test with h1-77_r it was 0%; with h78-107_r.v2, 0%; with hTF it was 100%; in the test with rTF (rat TF) [12], 0%. Also, the results for the “Percent antibody binding to TF construct relative to hTF” value with r141-194_h and with hTF_N171H_T197K [13] were 0% and 83%, respectively.

B7: 29E (antibody, human IgG1, V domains shown)
VH: QVQLVESGGGVVQPGRSLRLSCAASGFTFRSYGMHWVRQAPGKGLEWVAVITYDGINKYYADSVEGRFTISRDNSKNTLYLQMNSLRAEDTAVYYCARDGVYYGVYDYWGQGTLVTVSS
VL: not shown
notes: Human IgG1
As to B7, the “Percent antibody binding to TF construct relative to hTF” value came out at 0% with rTF (rat TF) [11]; 0% with h1-107_r; 0% with h1-77_r; 0% with h78-107_r.v2; 100% with hTF; 0% with rTF (rat TF) [12]. Moreover, the “Percent antibody binding to TF construct relative to hTF” value came to 0% with r141-194_h and 98% with hTF_N171H_T197K [13].
